Reference: publication PMC9068813, “Enhancer RNAs stimulate Pol II pause release by harnessing multivalent interactions to NELF”

Key:
Details in all cases: protein: recombinant; tags: His-tag (Ni-NTA purified); copies: 1;1;1;1
[1] = molecular target: T1, NELF-EΔRRM complex (NELFΔRRM) (UniProt Q9H3P2;Q8WX92;Q8IXH7;P18615 1-528;1-628;1-590;1-261+333-380, internal_change); test: EMSA (NELF release from PEC); apparent Kd; NELF in PEC on N1; 20 mM Na-HEPES pH 7.4, 100 mM NaCl, 25 mM KCl, 3 mM MgCl2, 2 mM DTT; assembly 30 °C, eRNA incubation 15-20 min at room temperature; 3.5% native PAGE 0.5x TBE at 4 °C; PEC about 0.1 µM NELF 0.15 µM
T1 sequence (Q9H3P2 whole entry, stated change not applied, chain 1 of 4): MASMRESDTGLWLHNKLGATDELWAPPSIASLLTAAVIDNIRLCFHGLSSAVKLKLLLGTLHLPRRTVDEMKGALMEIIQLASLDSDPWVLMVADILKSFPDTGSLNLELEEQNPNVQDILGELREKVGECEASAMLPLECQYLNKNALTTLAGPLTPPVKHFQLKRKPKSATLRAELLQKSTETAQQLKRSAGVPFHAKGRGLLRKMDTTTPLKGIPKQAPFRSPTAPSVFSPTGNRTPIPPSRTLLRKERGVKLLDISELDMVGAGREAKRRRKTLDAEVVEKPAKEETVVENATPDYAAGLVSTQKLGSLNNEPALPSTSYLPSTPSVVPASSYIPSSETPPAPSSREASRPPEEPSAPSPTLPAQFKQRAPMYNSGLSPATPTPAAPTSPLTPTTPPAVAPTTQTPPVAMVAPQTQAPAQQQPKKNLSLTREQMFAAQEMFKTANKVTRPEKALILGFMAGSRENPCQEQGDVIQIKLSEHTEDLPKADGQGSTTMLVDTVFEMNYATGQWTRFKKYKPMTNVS
T1 sequence (Q8WX92 other isoform, or with tags, fused parts or gaps | mutant, chain 2 of 4): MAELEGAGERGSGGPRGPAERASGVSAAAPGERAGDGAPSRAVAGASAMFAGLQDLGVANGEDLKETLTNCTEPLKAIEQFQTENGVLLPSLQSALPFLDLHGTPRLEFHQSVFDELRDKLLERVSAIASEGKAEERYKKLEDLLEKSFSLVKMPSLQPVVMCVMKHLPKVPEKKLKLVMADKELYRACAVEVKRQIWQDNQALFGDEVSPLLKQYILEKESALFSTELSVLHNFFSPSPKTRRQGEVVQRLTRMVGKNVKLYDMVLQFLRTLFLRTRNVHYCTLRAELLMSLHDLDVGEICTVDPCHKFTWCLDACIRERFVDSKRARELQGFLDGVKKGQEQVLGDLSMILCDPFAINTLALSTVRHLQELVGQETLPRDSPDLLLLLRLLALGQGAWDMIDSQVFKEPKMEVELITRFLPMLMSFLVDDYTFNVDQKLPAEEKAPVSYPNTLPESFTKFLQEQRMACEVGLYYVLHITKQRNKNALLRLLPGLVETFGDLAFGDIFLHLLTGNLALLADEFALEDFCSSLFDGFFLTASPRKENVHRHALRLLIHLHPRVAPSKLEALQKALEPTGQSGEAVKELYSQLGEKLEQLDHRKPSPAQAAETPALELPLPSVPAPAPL
T1 sequence (Q8IXH7 whole entry, stated change not applied, chain 3 of 4): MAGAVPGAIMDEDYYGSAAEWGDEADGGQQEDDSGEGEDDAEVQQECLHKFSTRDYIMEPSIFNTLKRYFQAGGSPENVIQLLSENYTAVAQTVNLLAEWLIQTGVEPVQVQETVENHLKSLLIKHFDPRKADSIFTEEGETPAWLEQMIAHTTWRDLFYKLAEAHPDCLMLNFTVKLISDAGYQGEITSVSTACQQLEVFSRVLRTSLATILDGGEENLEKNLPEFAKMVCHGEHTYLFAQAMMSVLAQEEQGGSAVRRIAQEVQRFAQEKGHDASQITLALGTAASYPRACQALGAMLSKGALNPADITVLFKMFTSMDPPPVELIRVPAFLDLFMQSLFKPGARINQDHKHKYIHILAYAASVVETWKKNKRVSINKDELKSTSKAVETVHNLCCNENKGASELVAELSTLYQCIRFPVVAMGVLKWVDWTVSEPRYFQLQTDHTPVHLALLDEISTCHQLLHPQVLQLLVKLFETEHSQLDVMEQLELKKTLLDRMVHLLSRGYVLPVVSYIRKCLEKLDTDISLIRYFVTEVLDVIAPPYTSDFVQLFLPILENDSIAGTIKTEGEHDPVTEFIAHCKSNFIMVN
T1 sequence (P18615 other isoform, or with tags, fused parts or gaps | mutant, chain 4 of 4): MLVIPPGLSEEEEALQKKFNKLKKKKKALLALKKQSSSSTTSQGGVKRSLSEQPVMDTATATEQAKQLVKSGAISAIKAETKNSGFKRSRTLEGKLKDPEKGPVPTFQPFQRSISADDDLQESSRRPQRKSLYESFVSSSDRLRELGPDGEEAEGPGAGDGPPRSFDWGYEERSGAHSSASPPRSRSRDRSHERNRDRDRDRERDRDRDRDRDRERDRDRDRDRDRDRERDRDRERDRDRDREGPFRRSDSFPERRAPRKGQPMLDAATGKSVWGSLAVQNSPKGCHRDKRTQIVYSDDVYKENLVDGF

[2] = molecular target: NELF double mutant (patch + ΔRRM) (UniProt Q9H3P2;Q8WX92;Q8IXH7;P18615 1-528;1-628;1-590;1-261+333-380, R291Q;K315M;K371M;K372M;K374M;K384M;K388M;R419Q;R506Q;internal_change); test: EMSA (NELF release from PEC); large molar excess; 20 mM Na-HEPES pH 7.4, 100 mM NaCl, 25 mM KCl, 3 mM MgCl2, 2 mM DTT; assembly 30 °C, eRNA incubation 15-20 min at room temperature; 3.5% native PAGE 0.5x TBE at 4 °C; PEC about 0.1 µM NELF 0.15 µM
Sequence of NELF double mutant (patch + ΔRRM) (Q9H3P2 whole entry, stated change not applied, chain 1 of 4): as the sequence (Q9H3P2 whole entry, stated change not applied, chain 1 of 4) above
Sequence of NELF double mutant (patch + ΔRRM) (Q8WX92 other isoform, or with tags, fused parts or gaps with the stated changes, chain 2 of 4): as the sequence (Q8WX92 other isoform, or with tags, fused parts or gaps | mutant, chain 2 of 4) above
Sequence of NELF double mutant (patch + ΔRRM) (Q8IXH7 whole entry R291Q/K315M/K371M/K372M/K374M/K384M/K388M/R419Q/R506Q, chain 3 of 4): as the sequence (Q8IXH7 whole entry, stated change not applied, chain 3 of 4) above, with R291Q, K315M, K371M, K372M, K374M, K384M, K388M, R419Q, R506Q counted along it
Sequence of NELF double mutant (patch + ΔRRM) (P18615 other isoform, or with tags, fused parts or gaps with the stated changes, chain 4 of 4): as the sequence (P18615 other isoform, or with tags, fused parts or gaps | mutant, chain 4 of 4) above

[3] = molecular target: T1, NELF-EΔRRM complex (NELFΔRRM); test: EMSA (NELF release from PEC); release not abolished; 20 mM Na-HEPES pH 7.4, 100 mM NaCl, 25 mM KCl, 3 mM MgCl2, 2 mM DTT; assembly 30 °C, eRNA incubation 15-20 min at room temperature; 3.5% native PAGE 0.5x TBE at 4 °C; PEC about 0.1 µM NELF 0.15 µM

B1: Arc eRNA 1-200 (structured_RNA)
RNA: AAAACACAGCCGCCAGGGUGGGGGUGGCAGCCUUGAACGCCACCCUCUAACUGGCAUGGGCAUCUGAACUCUCAGCUCUGGGGGUGUCUCAUCGGCCAGCUGGCAGUAGCCCCCCCAACCCCACCCCUGAUGGAGAACUGCUCCUGUAUGAUCCAGCCCAGUGGGCGCACAGGGAGUUGGUAGGUGGGCACUCAGACUGG
For B1, the Kd [1] was 0.33 µM and the binding result [2] was “no binding”.

B2: Nr4a1-(a) eRNA 1-100 (structured_RNA)
RNA: GCGGUGAGAGUGAUUUUGUAACUCUAAAGUUACAGAGGGUUUUGUUGUGUUUUUAAUCAAGAGCCCUGGUUUUGAUUUGUGGGUAAUCUUUCUUUAAACC
B2: binds [3].

B3: Arc eRNA 1-100 (structured_RNA)
RNA: AAAACACAGCCGCCAGGGUGGGGGUGGCAGCCUUGAACGCCACCCUCUAACUGGCAUGGGCAUCUGAACUCUCAGCUCUGGGGGUGUCUCAUCGGCCAGC
B3 showed a Kd [1] of 7.8 µM.

B4: Nr4a1-(a) eRNA 1-200 (structured_RNA)
RNA: GCGGUGAGAGUGAUUUUGUAACUCUAAAGUUACAGAGGGUUUUGUUGUGUUUUUAAUCAAGAGCCCUGGUUUUGAUUUGUGGGUAAUCUUUCUUUAAACCUCGCCCAUUUCCGGCCUGGUGACCUGGGCCACUUUCUCAUGUUGACCCAGAUGAUCCUCAGUAGCAAGAACAAAAGGACAACAGAUGUGGAAACACUCAA
B4: no binding [2].

B5: Nr4a1-(b) eRNA 1-200 (structured_RNA)
RNA: AGUAGGGGCAUGGCUCGCCCGAGGCUCGGUGCUGCCCCGCCGCCCGCCGCGUUCCUUCCGGCUUGGUGUUCCGGUGGCGGGACCAGGGAAGGGAAGCUCGGGCCAAAUCCGGUCUCGGGCGAGGUGACAGAAAUUUGGAAUCUGACACCGGAGGAUGGCUGAGCUCCGGCUCCUCUGGGAGUGCAAUUACGGACUUCGCA
B5: no binding [2].
